Reference: a protein production outcome set (Wang et al. 2014)

Assay: label from the status in PepcDB records
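Note: failed if final PepcDB status was selected cloned or expressed and not failed if soluble or beyond.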

Sequence: MDEGCVIAFLVWVDNGECILERQSAPDELNLFDIILVAKEQWRLLLAVPLLLAVLAAGISLAMPDQYTAKALVNIPAPVGAAGGVNIVQSTSLLEQAVEKFQLQRYYAVEDNRSALLALSNVVKTTAGKDGLLEISATDRNAEQAARLGNYLADLTRQHILDGNLTEQSKRYFVLQKRLDVESEQVSQLSRKVAQLVPDQEAALGGEGMQLISGFATLEAQLAFQNVQAAGNSGAVSNLQSSVMQLRASLELANPKVRQMSNEQLAGLRDLYFHRALAAELQRQVSLAKSLADQDVQIVLKASAPLEKSGPKRTLIVLLAGLVGLMLAIALIVCKRQWRELSNRFAKNTAA
- protein production: failed

Sequence: MTEKLIEQLEARINDLECQVAFQEQTIEDLNSALSQQQLQITKMQDQMKYVVGKVKNMDSSNMEDPANEPPPPHY
- protein production: failed

Sequence: MQSDHKEKIAILVDVQNVYYTCREAYRSNFDYNQFWYVATQEKEVVSAKAYAIASNDPKQRQFHHILRGVGFEVMLKPYIQRRDGSAKGDWDVGITLDAIEIAPDVDRVILVSGDGDFSLLVERIQQRYNKKVTVYGVPRLTSQTLIDCADNFVAIDDDFLL
- protein production: not failed

Sequence: MNQYVKIEVQQGDTLWSIADQVADTKKINKNDFIEWVADKNQLQTSDIQPGDELVIPLKKKHQDAYELATLEHHHHHH
- protein production: failed

Sequence: MKFFGEIAERAGVPSVMGEILAGILFGALFLDVETGIITFFAQLGSIFLLFTAGYKEVSLRDLRPAVLVAFIPTLTQLVFAFAFGFMLGKIFNFTFLQSLFMAVALSPTAIGVVIRILIDLNYLSSRPGLVMLSSAVLDDIIAISLLSLIVTFARFNRAPSALAVLTISGKILLFLLIMYILGKYFFPRLFVHAQKMHAKEAVFSLVVMTALFSSYLAELFELHATIGAFIGGMLISEIPLAKIPDVQSKVEGLAYGILIPLFFAFIGYSIDLYALVKAGIFVPVVTLLALSGKLIGGFIGSKAIGFNFCESLAFGAGVMPRAGIELVMLTIGRGIGIIGEEIFSAMVFMVIVSILISPSALKFAIQAERKNKTGNELKVG
- protein production: failed

Sequence: MSEAVPSVVAIDIGTHKVSVLIGKVHAPDNIQVIGMATARNRGMNKGKIVSLDKVISAIKNAVAEAENMAECRVHTAWVSIPTTELQSFYASGRIPIAKADHTITTNEVVRALELAKASHVTPDYYLASAVPLGFELDDSSEWVQNPINMSAHSMTGHYQLMMMPISIMQNLDRAMKGASIGVEKMVVSCLATAEASLLKDEKEYGVCLLDIGAGTTNIAVYLDGRLALARTLQRGGENVTRDIAAVLQTTTEEAERIKILHGCVDLSAIKPDQMIQVQAIDGPQTISRIELAEIIIARYEEILGQVRDELERSGAIHGLYHGVVLTGDACQIEGMISLARRILGVSAHLGNPPLQVYADDQHQASIRRSMYATAAGLLMFSQSELQDTVEDSEEASQRSLWNRVANGWNTLNTKLKAIF
- protein production: failed

Sequence: MMAVESSKRLASETPVSLFIPYSHHITDTIISTKNAEYLSIWKIDGRSHQSASEEDIFQWARELNNTLRGIASANLSLWTHIVRRRVYEYPDSTFDKMFCYQLDEKYRQSFTGYNLMVNDLYLTVVFQPIADKVMSFFSQHERETLDQKKMRQESCIKALNDINRTLGQSFKRYGGELLGTYEKNGHAYSSALEFLAMLVNGEYSPMPICRDRFADYMSINRPFFSKWGALGELRTTSGIRRFGMMEIKEYDTTTKPGQFNVLLESDFEFVLTQSFSVLSRHAAKDYLQRHQRNLIDARDVATSQIEQIDEALNQLISGHFVMGEHHCTLTIYGDTVQQVRDYMAKANAALLEVAVLPKPVDLAIEAGYWAQLPANWKWRPRPAPITSLNFLSFSSFHNFMSGKPTGNPWGPAVTILKTISKTPLYFNFHASKLEEDATDKRLLGNTAIIGQSGSGKTVLLGFLLAQAQKFKPTTVVFDKDRGMEIAIRAMGGRYLTFKPGRQSGFNPFQLPPTQDNLTFLKQFVKKLAEASSEITHRDEEEINQAVMSIMSSNINPSLRRLSFLLQFLPNPHLNDYNSHPSVHTRLIKWCEGGDYGWLFDNPTDALDLSTHQIYGFDITEFLDNPETRTPVMMYLLYRTEGMISGQRFMYIFDEFWKPLQDPYFEDLAKNKQKTIRKQNGIFVFATQEPTDALESNIAKTLIQQCATYIFLANPKANYEDYTEGFKLTDAEFELIKGIGEFSRQFLIKQGDQSALAELNLGKFHVTIDGKTVEQNFSDELLVLSGTPDNAELVENIIAEVGDDPALWLPVFLQHIKTNRRTT
- protein production: failed

Sequence: MTKTAKVNDIVRDWVVLDAKDKVFGRLITEIAVLLRGKHRPFYTPNVDCGDFVVVINANKVKFSGMKLEDKEYFTHSGYFGSTKSKTLQEMLEKAPEKLYHLAVRGMLPKTKLGKAMIKKLKVYRDDKHPHTAQTSKKDAK
- protein production: failed

Sequence: MDHSLNSLNNFDFLARSFARMHAEGRPVDILAVTGNMDEEHRTWFCARYAWYCQQMMQARELELEH
- protein production: not failed

Sequence: MANEGGQDAGDEYFADLDYIEVAEQLKEGYESEVDHSDPDAEEDNGGPDAEDDDDFRPNYHYQRKIKRSSRSGSTQNSSTQSSELDSQERAVINFNPNADLDET
- protein production: failed

Sequence: MSANLKPGSQVNTDQKPEKTKVLILGGTGEMGQWFTRFFKQKGYEVTVWGKGGKTEIASKLGVPFASDLEKAVPESDILIVSVPINVTEETIAEFAPKMKSGSLLMDFTSIKVKPVEAMKKFAPSDVEILGTHPMFGPTIPTIRGQTVILVPVKGRSEKWFPVIRELFEEGGAHVEITTAAEHDRLVSVVQGLTHFAYITIGTTIDRLDFDIKKSRKFVSPVYAIMLDFVGRILGQNPYLYALIQMENPGVLEVHDAFIRECEELSRLVRAHDEESFVKKMKSAARKYGDTAHALRKSDKLINSRITEYETILNSVGKVCGFSHFYSGKIHVGILGKAGPDEIVLTKMVSKGTSPHIKNKFVKLKLENLRMLSESELWEWRKENLEHSTRDISVLIPEGADPEVILNAINTNKQLAACEISDIYKGVNQGDHKRINRGDYKEFNRIETEKEREEAKRLGVTYRITVFGDCDANSVEADVTSLLCGLGCRIREKNLKQIEKTEPKR
- protein production: failed

Sequence: SYRSTQQITDFTKEILVNGEAVTAFDRQGDLPNVVVTPNFEAGVDQVVDQLAMNDSERDTTAIIGKSLAECEALTKALKARGEQVTLIQTENQRLAPGVIVVPSFLAKGLEFDAVIVWNANQENYQREDERQLLYTICSRAMHELTLVAVGSLSPLLARVNHALYTLNEAK
- protein production: not failed

Sequence: MASKSVHADITLLLDMEGVIREATLSPTMAAESVDGWLGRRWSDIAGAEGGDKVRRMVEDARRSGISAFRQINQPFPSGVEIPIEFTTMLLGDRTGMIAVGKNMQAVTELHSRLIAAQQAMERDYWRLRELETRYRLVFDAAADAVMIVSAGDMRIVEANRAAVNAISRVERGNDDLAGRDFLAEVAAADRDAVRDMLAQVRQRGTALSVLVHLGRYDRAWMLRGSLMSSERRQVFLLHFTPVTTTPAIDDVDDDAVLRGLIDRIPDGFVALDSEGVVRHANQAFLDLVQIGSKPAAVGRSLGVWMGRPGADLSSLLTLLRRYKTVRLFQTTIRGELGTETEVEVSAVDGEDDQYIGVLMRNVARRLDAADDHDALRQALGPISKQLGRSSLRKLVKNAVSIVEQHYVKEALLRSKGNRTATAELLGLSRQSLYAKLNCYGFDDKGVVASAADGAEGASDDAED
- protein production: failed

Sequence: MLDTYGRKYVNPIIDLGANTLLKLRLTPNGVSIIALIIGVLSSVFLYFDKLILSVVFLWISGYLDSVDGAMARKKNLTSPFGTLLDITFDRIVELSIIFVLALKFQNSRLYLLILTMMILISMTIFLTVGALAQNNGMKSFRYQAGLAERSEGFICFSLMILLSSIKLNLVTNIFSLIIFITIIQRALEAKRLLK
- protein production: failed

Sequence: MGNLKAEYLEQTYIDLAPLKDAEDCRTYLTRSQVDGSLAVRKEICALQYPLYQQLIDFSHPSLARVLETYTKDGRYFVLEEYVSGSTIGSYLKRGYHFQEHEILSFISQLCSALSFLHAHNIIHRDVTPENLLISTDNVLKLIDFGISRSKKEGQSQDTTILGTVGYAAPEQFGFGQTDERTDIYATGVLLNVLLTGSLPKDDLPFDPRYRQIVLKCTSISPADRYSSVSELKSQIMAIKPTRIYQAEIVEPSGKAPRKDSLIRRFFRHVPGFRTGNPGKMIVAIIGYFLMLLFVVVNGTRPLEPGDIRSEYWTINYFFVGVWAAYVNLGNYCGHIEAYDKVGPLTRLLLRTAVALAVFLTTGLLLYFENYCLK
- protein production: failed

Sequence: SPLPVALQTRLAKRGILKHLEPEPEEEIIAEDYDDDPVDYEATRLEGLPPSWYKVFDPSCGLPYYWNADTDLVSWLSPHDPNSVVTKSAKKLRSSNADAEEKLDRSHDKSDRGHDKSDRSHEKLDRGHDKSDRGHDKSDRDRERGYDKVDRERERDRERDRDRGYDKADREEGKERRHHRREELAPYPKSKKAVSRKDEELDPMDPSSYSDAPRGTWSTGLPKRNEAKTGADTTAAGPLFQQRPYPSPGAVLRANAEASRTKQQD
- protein production: not failed

Sequence: MKTLEKVNYKGFIWPLAVGIVLWLITPWRPGGLSVQAWEMFAIFVATIVGCITKPLPIGGTTLLGMVVTVLVGLAPVKDVVNSKGVVIQTGILSSFGNSAAWLIAMAFIMAHGISKTGLGNRVAYVMIEKFGKRSIGIGYAITGLELMMGALIPSNSARTGGVTWPVVESISKSYDSKPNDPSRKKIGAYLDFMAFHANILSTALFITGAAPNLVAQQMAAQKGYQMSWVSWFWAALVPVLVATVIIPLVIYKMYPPEVKETPNAKNWADDKLKEMGPISKPEKIMATVFCLAILLWVLSGFFKIPQLDSAFVAFLAVTLLLITGVLSMEDALHETGAWNILIWLSILIFMAGKLISYGFIAWFAKFIQSEVHGINWGLVLVVLILLMFYTHYFFASGTAHMTALYLPFLTVATAMGAPLGLSAMLLAFTGVINASTTHYANGPASILATTGYVKQSEWWKMNFILGLIYMVIFGIVGTIWMKIIGIW
- protein production: failed

Sequence: MSRFLTFFLIVFSYALQAQVASLTNAILYRNDGNLIKAKEEIDKAVVNEKTIGMPKTWFYTGLIYKDLYQATPTDLAALTTSTAAFKKVFELEKPAGEFSKKSQEALEQIWAISINNGVNLYQLENYRQAITDFERAQGIKPGDTTAYVYAFYAANELKDQALLEKYSSALVRLNYASEAVYYIDIESLMDKNLLDSAYTVSKKALTNYPSDIALKTQQTELMVKMNKTQEAIENLKVLSTKNPKDVQLLINIGSQYTNLNDEPHAAEYYQKALAIDSVNFNANYNMAVFSLRKANEISKQIVVSDNNLKKSFKAIPTVATDPLRQNLQKELAVSTKYYNRAVLGAKDEEAKKNVKTLQDNITSFEDQFLK
- protein production: failed

Sequence: MKRRYSILIILLVAIFYRMITFRFKYLLGYDPYFHLAYIEEVNKVGKWINFLTFAGGPWGYQVKLFHPLGLWMTPLYLYKLLKVFGVSLTTTFKITPVIFGVLTVIFLYLSLLKLYDEKRAFFGGFFLAISYGHVFRSMANYYRGDNYMLFWYSVALLGISLALGIKKGKWKYKRLIFYTLPVLASGFSAIFWQAYYPIFAFLLSNALLLAVGAFILKKDKYLLDSIILILSTAFGVLLANYLGGIFGYGMLGYAKWLGKSVAKKLGLEFGYLKDVYLILHLKYLVPISLSFVLVLILLGFLTKDIRIRSLFLGIASFIGIIILFKRFEALKELSTGFGIFKEAPILETQPTSFKDLWAAFSLSFFLTPLFFIRFKKPRVEDFLTLGLIIPSVYMLKTWTRFLFIGSMAIAIMSGIGIVELYEAIKPRLNGKKALATGIITLVILPGVIAGLSFKEVCSLHPEMNEAWERALKWLKNNSNENDVILAWWDWGHFITYYARRSPIAQGGPSVGVALYLLGKLNENWAINLGVDYVIVSYYDFLKFGAILSTANLSKRYNIRGYGLVVLPLRASTGALIFENRGYRAIVRHDKSWNAVIIYNGQMIYPRKLYVEHKEGVQEIKPPESNSNTYLYVNLNYGYAIFMNGNAFNTTLVRLFITPEKPYKLVYSDGGLIKIFKLEHPNVKVERRESNVILNFENGTSLGLYFFLDNGTMVLSKWYNVKGKNEFIVPKVNASVARYVLKRGKKVVDRGVFRLSYN
- protein production: failed
